# Measurements reported in paper PMC9168836, “Clamping of DNA shuts the condensin neck gate” (Proceedings of the National Academy of Sciences of the …, 2021).
# T1: Smc2 (budding yeast (S. cerevisiae), UniProt P38989 1-1170)
# T1 construct: Smc2, SMC subunit of budding yeast (S. cerevisiae) condensin; only the head domain and proximal coiled coil (neck) are resolved in the maps; Subunit of the wild-type condensin tetramer and pentamer used for cryo-EM
# T1 sequence: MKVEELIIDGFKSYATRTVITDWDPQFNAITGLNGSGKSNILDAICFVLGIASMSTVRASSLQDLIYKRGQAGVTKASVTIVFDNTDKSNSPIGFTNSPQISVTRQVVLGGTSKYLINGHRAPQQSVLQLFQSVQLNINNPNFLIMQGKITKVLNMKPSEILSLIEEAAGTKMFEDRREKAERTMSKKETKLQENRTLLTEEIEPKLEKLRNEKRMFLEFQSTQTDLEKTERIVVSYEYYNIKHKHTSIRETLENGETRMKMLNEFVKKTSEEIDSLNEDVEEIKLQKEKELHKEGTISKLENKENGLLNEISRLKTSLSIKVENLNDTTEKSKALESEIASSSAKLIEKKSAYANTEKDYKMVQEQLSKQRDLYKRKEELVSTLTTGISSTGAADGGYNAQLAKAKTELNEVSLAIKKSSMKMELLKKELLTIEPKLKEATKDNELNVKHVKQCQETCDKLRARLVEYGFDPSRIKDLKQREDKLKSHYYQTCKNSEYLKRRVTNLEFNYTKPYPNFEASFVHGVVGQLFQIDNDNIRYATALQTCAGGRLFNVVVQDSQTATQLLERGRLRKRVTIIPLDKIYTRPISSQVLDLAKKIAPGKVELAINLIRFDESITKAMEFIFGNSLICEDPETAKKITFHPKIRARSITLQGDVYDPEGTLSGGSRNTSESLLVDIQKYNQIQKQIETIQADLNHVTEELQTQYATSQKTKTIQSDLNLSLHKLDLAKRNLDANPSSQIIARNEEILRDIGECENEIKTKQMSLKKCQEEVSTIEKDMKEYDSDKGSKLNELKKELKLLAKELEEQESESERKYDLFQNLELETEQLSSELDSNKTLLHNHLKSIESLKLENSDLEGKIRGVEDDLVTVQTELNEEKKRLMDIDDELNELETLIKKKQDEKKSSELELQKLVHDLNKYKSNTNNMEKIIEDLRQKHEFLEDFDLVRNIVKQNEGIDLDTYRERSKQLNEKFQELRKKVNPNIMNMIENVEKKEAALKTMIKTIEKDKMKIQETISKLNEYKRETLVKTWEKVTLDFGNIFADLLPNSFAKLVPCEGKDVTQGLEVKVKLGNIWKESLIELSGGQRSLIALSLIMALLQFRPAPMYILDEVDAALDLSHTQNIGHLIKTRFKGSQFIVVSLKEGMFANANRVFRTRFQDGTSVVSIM
# T2: Ycs4 (S. cerevisiae, UniProt Q06156 1-1176)
# T2 construct: Ycs4, HAWK (HEAT repeat) subunit of S. cerevisiae condensin
# T2 sequence: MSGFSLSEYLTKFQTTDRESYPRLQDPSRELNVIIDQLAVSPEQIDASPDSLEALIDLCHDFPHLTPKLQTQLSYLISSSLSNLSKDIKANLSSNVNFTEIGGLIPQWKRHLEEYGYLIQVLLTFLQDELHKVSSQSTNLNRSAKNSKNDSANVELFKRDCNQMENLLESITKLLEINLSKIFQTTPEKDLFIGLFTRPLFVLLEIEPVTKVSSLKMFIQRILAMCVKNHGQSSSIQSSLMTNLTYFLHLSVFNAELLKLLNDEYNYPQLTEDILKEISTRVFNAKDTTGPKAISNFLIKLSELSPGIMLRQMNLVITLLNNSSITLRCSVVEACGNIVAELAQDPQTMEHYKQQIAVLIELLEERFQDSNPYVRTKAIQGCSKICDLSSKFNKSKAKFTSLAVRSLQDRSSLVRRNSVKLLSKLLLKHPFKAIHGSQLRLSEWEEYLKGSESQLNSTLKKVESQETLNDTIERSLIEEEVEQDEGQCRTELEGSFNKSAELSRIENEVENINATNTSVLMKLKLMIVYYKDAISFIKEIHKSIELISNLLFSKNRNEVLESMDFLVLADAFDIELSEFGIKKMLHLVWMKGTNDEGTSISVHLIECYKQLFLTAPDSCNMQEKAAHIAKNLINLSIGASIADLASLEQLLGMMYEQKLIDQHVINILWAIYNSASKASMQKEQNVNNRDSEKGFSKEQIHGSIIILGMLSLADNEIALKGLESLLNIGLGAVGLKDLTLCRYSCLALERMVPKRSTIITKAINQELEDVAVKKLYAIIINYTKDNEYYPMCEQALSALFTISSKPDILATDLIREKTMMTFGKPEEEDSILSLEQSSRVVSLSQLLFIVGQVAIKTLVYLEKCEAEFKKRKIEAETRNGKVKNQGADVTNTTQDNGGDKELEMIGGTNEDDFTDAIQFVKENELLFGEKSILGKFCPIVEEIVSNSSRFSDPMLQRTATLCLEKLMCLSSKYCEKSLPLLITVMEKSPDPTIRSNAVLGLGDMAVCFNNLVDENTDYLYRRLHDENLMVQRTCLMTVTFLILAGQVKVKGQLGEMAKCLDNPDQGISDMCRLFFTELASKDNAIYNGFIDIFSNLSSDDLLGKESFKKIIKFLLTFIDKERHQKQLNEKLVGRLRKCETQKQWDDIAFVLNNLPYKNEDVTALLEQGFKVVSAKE
# B1: Brn1-HA3-His12 (natural protein, budding yeast (S. cerevisiae), UniProt P38170 1-754, looked up)
# chain: MTTQLRYENNDDDERVEYNLFTNRSTMMANFEEWIKMATDNKINSRNSWNFALIDYFYDLDVLKDGENNINFQKASATLDGCIKIYSSRVDSVTTETGKLLSGLAQRKTNGASNGDDSNGGNGEGLGGDSDEANIEIDPLTGMPISNDPDVNNTRRRVYNRVLETTLVEFETIKMKELDQELIIDPLFKKALVDFDEGGAKSLLLNTLNIDNTARVIFDASIKDTQNVGQGKLQRKEEELIERDSLVDDENEPSQSLISTRNDSTVNDSVISAPSMEDEILSLGMDFIKFDQIAVCEISGSIEQLRNVVEDINQAKDFIENVNNRFDNFLTEEELQAAVPDNAEDDSDGFDMGMQQELCYPDENHDNTSHDEQDDDNVNSTTGSIFEKDLMAYFDENLNRNWRGREHWKVRNFKKANLVNKESDLLEETRTTIGDTTDKNTTDDKSMDTKKKHKQKKVLEIDFFKTDDSFEDKVFASKGRTKIDMPIKNRKNDTHYLLPDDFHFSTDRITRLFIKPGQKMSLFSHRKHTRGDVSSGLFEKSTVSANHSNNDIPTIADEHFWADNYERKEQEEKEKEQSKEVGDVVGGALDNPFEDDMDGVDFNQAFEGTDDNEEASVKLDLQDDEDHKFPIRENKVTYSRVSKKVDVRRLKKNVWRSINNLIQEHDSRKNREQSSNDSETHTEDESTKELKFSDIIQGISKMYSDDTLKDISTSFCFICLLHLANEHGLQITHTENYNDLIVNYEDLATTQAAS
# notes: Brn1, kleisin subunit of budding yeast (S. cerevisiae) condensin; 754 residues as printed (279/754 traced in the head module map); The tags' end is read from the plasmid's name BRN1-HA3-His12; also called kleisin Brn1
# Columns and labels:
# [1] = target: T1, Smc2; experiment: cryo-EM structure; condensin pentamer with 100 nM relaxed circular DNA (1,789 bp), 5 mM ADP, 1 mM BeSO4, 10 mM NaF in TNT buffer pH 7.5; VPP and non-VPP images; low-resolution maps of the head module and of Ycg1-DNA; settings: both partners purified
# [2] = target: T2, Ycs4; experiment: as above; settings: both partners purified
binder,measurement,setting,value
B1,binding result,[1],binds
same,binding result,[2],binds
